Results: patent US7399747B1, “Peptides carrying substances across the blood brain barrier” (SYNT:EM, priority 1998, dated 2008)
“Also recorded” adds a separate entry of the source. *1 amine or outer side, *2 acyl side, *3 side chain or, on linkers, in order; H or OH if unused. Where a SMILES comes first, the peptide text is derived from it. Where no end group is shown, it is not given here. The star is where a group is joined. Doxorubicin(3'-N) = COc1cccc2c1C(=O)c1c(O)c3c(c(O)c1C2=O)C[C@@](O)(C(=O)CO)C[C@@H]3O[C@H]1C[C@H](N*)[C@H](O)[C@H](C)O1; Suc = O=C(CCC(=O)[*:2])[*:1]

Assays:
[1] = In situ cerebral perfusion, penetration into the brain (influx constant Kin); format: in vivo, rat
Procedure: The rats are perfused with the buffer containing free doxorubicin or compounds No. 1 or 2. The doxorubicin is radio-marked with carbon 14 in each product (specific activity=9.4 microCi/mg, Amersham, France). The products are perfused at a concentration of 0.33 microCi/ml or 0.035 mg/rat.
The heart is stopped by cutting the ventricles immediately before perfusion starts, in order to prevent reflux of the perfusate during the perfusion.
The brain is removed quickly after decapitation. The brain is dissected on a mirror into 8 regions, namely Hypothalamus (HY), frontal Cortex (CF), Mesencephale (MS), Occipital Cortex (CO), Parietal Cortex (CP), Thalamus (TH), Hippocampus (HP), Striatum (ST), which are placed in previously calibrated glass flasks and then weighed. These structures and 50 microliters of perfusate are digested for two hours in 1 ml of soluene at 60° C. A scintillating cocktail (10 ml, Pico-fluor, Packard) is added to each sample and the quantity of tracers contained in them is measured by double counting in liquid scintillation (Packard, Tricarb, 1900TR).
This study consisted of comparing penetration in the HEB of doxorubicin alone with doxorubicin using compounds numbers 1 and 2 as vectors. After 60 seconds perfusion in the buffer, the penetration of products was estimated using the influx constant or Kin in microl/sec/g. […]

[2] = Capillary depletion after cerebral perfusion and rinsing (distribution volume Vd); format: in vivo, rat
Procedure: This method is used to measure the distribution of products between the cerebral parenchyma and endothelial cells, Triguero et al., 1990, J. Neurochem. 54, 1882-1888). After 60 seconds of perfusion, that may or may not be followed by 30 seconds rinsing, the right hemisphere is removed, its meninges and choroid plexus are removed, and it is then homogenized in 3.5 ml of Hepes buffer (10 mM of Hepes, 141 mM of NaCl, 4 mM of KCl, 1 mM of NaH2PO4, 2.8 mM of CaCl2, 1 mM of MgSO4 and 10 mM of D-glucose, pH=7.4). After grinding in the potter, 4 ml of solution containing 4% of Dextran (PM=76900) are added and the mix is stirred vigorously in order to obtain a […]. All these operations are carried out at 4° C. in less than 5 minutes. After taking a sample of the homogenate thus obtained, the homogenate is then put into the centrifuge for 15 minutes at 5400 g in order to separate the endothelial cells present in the base of the cerebral parenchyma that remained in the floating material. The results are expressed as distribution volumes in the floating material and the base.
This method measures the distribution of products between the cerebral parenchyma and endothelial cells. Capillary depletion is carried out after 60 seconds perfusion followed by 30 seconds rinsing. The distribution volumes (Vd) in endothelial cells and the cerebral parenchyma are expressed in microliters/g.

[3] = Intravenous injection in NMRI-nude mice, radioactivity in the brain; conditions: for Product quantity in brain: i.v. 2.5 mg DXR base/kg
Procedure: NMRI-nude mice are injected intravenously with compound No. 1 or doxorubicin alone at a dose of 2.5 mg/kg (equivalent in doxorubicin). The doxorubicin is marked with carbon 14 (about 0.5 microCi is injected per mouse). The mice are sacrificed after 1, 5, 15, 30, 60, 180, 480 and 1360 minutes. The organs are then removed and counted. The quantity of radioactivity in each organ is then expressed as the quantity of product per gram of organ. In this study, we used five mice for each period of time.
After intravenous injection of compound No. 1, nude mice were sacrificed at different times and the total radioactivity in the brain was counted and expressed as a quantity of product per gram of brain.

HEB = test: Tolerance to products: integrity of HEB by [3H]-sucrose distribution volume during in situ cerebral perfusion; conditions: co-perfused with [3H]-sucrose
Source text: This is a fast and sensitive method of evaluating the penetration of various compounds into the central nervous system (Takasato et al., 1984, Am. J. Physiol. 247, 484-493; Allen et al., 1997, Pharm Res. 14, 337-341). Two month old male Sprague-dawley rats (250-350 g. Iffa-Credo; l'Arbresle, France) are anaesthetised. After exposure of the common carotid, the right external carotid artery is bound at the junction with the internal carotid and the common carotid is bound between the heart and the site at which the catheter is installed (polyethylene catheter, ID=0.76). This catheter, previously filled with a solution of heparin (100 units/ml) is inserted into the common carotid. Rats are perfused with the perfusion buffer (128 mM NaCl, 24 mM NaHCO3, 4.2 mM KCl, 2.4 mM NaH2PO4, 1.5 mM CaCl2, 0.9 mM MgSO4, and 9 mM D-glucose). This buffer is filtered and then is bubbled using a mix containing 95% O2/5% CO2 in order to keep the pH close to 7.4 and to supply oxygen to the brain during the perfusion.
It is estimated that this volume must not exceed […]. For larger volumes, it is concluded that the permeability of HEB is abnormal.
Doxorubicin, compounds numbers 1 and 2 were injected in the presence of sucrose and the integrity of the HEB is measured.

[4] = Intravenous injection in CD1 mice, whole-body autoradiography, brain; conditions: i.v. 2 mg DXR base/kg
Procedure: In the case of compound No. 2, the CD1 mouse is injected intravenously with compound No. 2 or with free doxorubicin at a dose of 2 mg/kg (equivalent in doxorubicin). Doxorubicin is marked with carbon 14 (about 3 microCi is injected per mouse). The mouse is sacrificed after 15 minutes, 2 hours and 8 hours, and the product quantity in each organ is analysed using the “Whole-body autoradiography” technique. The quantity of radioactivity in each organ is then expressed as a quantity of product per gram of organ. We used one mouse per group in this experiment.
The total radioactivity in the brain is analysed using the “Whole body autoradiography” method and is expressed as a product quantity per gram of brain.

[5] = for Reduction of the influx constant after rinsing: 60 s perfusion then 30 s rinsing with buffer without tracer
Procedure: For rats on which the rinsing step is carried out, the catheter is inserted into the common carotid as described above, and is then connected to a 4-way valve (opposite passages) (Hamilton, USA) connected to two syringes; one containing the radio-marked tracer (syringe A) and the other the buffer alone (syringe B). Once the catheter is in position and the connections have been made correctly, the thoracic cage of the rat is opened and the heart is cut. The contents of syringe A are then immediately perfused at a rate of 10 ml/min. After 60 seconds, the contents of syringe B are injected in turn at the same rate. The rat is decapitated after 30 seconds of rinsing.
Rinsing of cerebral capillaries by perfusion of the buffer without tracer for 30 seconds eliminates the fraction of the product being studied adhering to the luminal membrane of endothelial cells, if any.

[6] = Hot Plate model (latency time); format: in vivo, mouse; conditions: for Effect on latency time / analgesic activity: i.v. injection, latency measured 0 to 90 minutes; for Latency time: 2 mg/Kg i.v. (dalargine equivalent), 5 minutes after injection
Procedure: For the purposes of this study, the biological activity of dalargine alone was compared with the biological activity of dalargine vectorised with SynB1. Consequently, the “Hot Plate” model in the mouse was used. In this model, the mouse is placed on a hot plate and the time that the mouse takes to react to heat is measured as the “latency time”.
2 mg/Kg of each product was injected intravenously into the mouse (the dose corresponding to the quantity of dalargine). After times varying from 0 to 90 minutes, the latency time was measured. […] The latency time is constant. […] For example 5 minutes after injection, the latency time of vectorised dalargine is 22.75 seconds, whereas it is only 7.6 seconds for dalargine alone.

[7] = 60 seconds perfusion followed by 30 seconds rinsing

COc1cccc2c1C(=O)c1c(O)c3c(c(O)c1C2=O)C[C@@](O)(C(=O)CO)C[C@@H]3O[C@H]1C[C@H](NC(=O)CCC(=O)N[C@@H](CCCNC(=N)N)C(=O)N[C@@H](CCCNC(=N)N)C(=O)N[C@@H](CC(C)C)C(=O)N[C@@H](CO)C(=O)N[C@@H](Cc2ccc(O)cc2)C(=O)N[C@@H](CO)C(=O)N[C@@H](CCCNC(=N)N)C(=O)N[C@@H](CCCNC(=N)N)C(=O)N[C@@H](CCCNC(=N)N)C(=O)N[C@@H](Cc2ccccc2)C(=O)O)[C@H](O)[C@H](C)O1 [No. 5, Doxo-CO—(CH2)2—CO-RRLSYSRRRF] ({Doxorubicin(3'-N)-Suc}-RRLSYSRRRF-OH)
Increase of transfer into the brain (Kin) compared with doxorubicin alone ([1]; 60 seconds perfusion in the buffer): five times | Penetration in the cerebral parenchyma compared with free doxorubicin [2, 7]: 50 times | Vd in the cerebral parenchyma [2, 7]: 98.32 µL/g

CC1(C)S[C@@H]2[C@H](NC(=O)Cc3ccccc3)C(=O)N2[C@H]1C(=O)O [benzylpenicillin, Benzylpenicillin, reference compound]
Vd in the cerebral parenchyma ([2]; 30 seconds perfusion followed by 30 seconds rinsing): 3.94 µL/g

COc1cccc2c1C(=O)c1c(O)c3c(c(O)c1C2=O)C[C@@](O)(C(=O)CO)C[C@@H]3O[C@H]1C[C@H](N)[C@H](O)[C@H](C)O1 [doxorubicin, Doxorubicin, reference compound]
Product quantity in brain ([3]; 1 min): 0.14 microg/g of brain | Product quantity in brain ([3]; 5 min): 0.05 microg/g of brain | Product quantity in brain ([3]; 15 min): 0.04 microg/g of brain | Product quantity in brain ([3]; 30 min): 0.05 microg/g of brain | Product quantity in brain ([3]; 60 min): 0.04 microg/g of brain | Product quantity in brain ([3]; 180 min): 0.03 microg/g of brain | Product quantity in brain ([3]; 480 min): 0.04 microg/g of brain | Product quantity in brain ([3]; 1360 min): 0.01 microg/g of brain | State of the HEB (HEB; perfused dose 0.07 mg): Integral | Product quantity in brain ([4]; 15 min): 1.24 ug/g of brain | Product quantity in brain ([4]; 120 min): 0.98 ug/g of brain | Product quantity in brain ([4]; 480 min): 0.67 ug/g of brain | Vd in the cerebral parenchyma [2, 7]: 1.75 µL/g | Reduction of the influx constant after rinsing [5]: about 25%

Doxo-CO—(CH2)2—CO-RGGRLSYSRRRFSTSTGR ({doxorubicin-Suc}-RGGRLSYSRRRFSTSTGR) [Compound No. 1]
Ratio of compound No. 1/doxorubicin (brain quantity) ([3]; 1 min after i.v. injection): 3.4 | Ratio of compound No. 1/doxorubicin (brain quantity) ([3]; 5 min after i.v. injection): 3.6 | Ratio of compound No. 1/doxorubicin (brain quantity) ([3]; 15 min after i.v. injection): 10.5 | Ratio of compound No. 1/doxorubicin (brain quantity) ([3]; 30 min after i.v. injection): 5 | Ratio of compound No. 1/doxorubicin (brain quantity) ([3]; 60 min after i.v. injection): 3 | Ratio of compound No. 1/doxorubicin (brain quantity) ([3]; 180 min after i.v. injection): 1 | Product quantity in brain ([3]; 1 min): 0.48 microg/g of brain | Product quantity in brain ([3]; 5 min): 0.18 microg/g of brain | Product quantity in brain ([3]; 15 min): 0.42 microg/g of brain | Product quantity in brain ([3]; 30 min): 0.25 microg/g of brain | Product quantity in brain ([3]; 60 min): 0.12 microg/g of brain | Product quantity in brain ([3]; 180 min): 0.03 microg/g of brain | Product quantity in brain ([3]; 480 min): 0.02 microg/g of brain | Product quantity in brain ([3]; 1360 min): 0.01 microg/g of brain | State of the HEB (HEB; perfused dose 0.05 mg): Integral | State of the HEB (HEB; perfused dose 0.8 mg): does not open the HEB abnormally; also recorded: Integral | Vd in the cerebral parenchyma [2, 7]: 28.5 µL/g | Fraction of compound found in the cerebral parenchyma ([2]; 1 minute perfusion followed by 30 seconds rinsing): About 60% | Increase of penetration after rinsing compared with free doxorubicin (factor) ([5]; 60 s perfusion then 30 s rinsing): 4 | Reduction of the influx constant after rinsing [5]: 45%

RGGRLSYSRRRFSTSTGR (PEPTIDE (1)..(18) Syn B1) [SynB1]
Effect on latency time / analgesic activity [6]: no analgesic activity

Y-(D)A-GFLR [dalargine, reference compound]
Latency time [6]: 7.6 s | Effect on latency time / analgesic activity [6]: no effect was observed

Y-(D)A-GFLR-S-S-RGGRLSYSRRRFSTSTGR [dal-SynB1]
Transfer into the brain (Kin) compared with dalargine alone ([1]; 60 seconds perfusion in the buffer (FIG. 7)): considerably increases its transfer into the brain | Latency time [6]: 22.75 s | Effect on latency time / analgesic activity [6]: an increase in the latency time is observed
